# Results published in US12338277.
# What was measured:
# Assay in all cases: cell-based or functional assay
# [1] = molecular target: HIV-1 Env of pseudovirus 1394C9G1(Rev-) (HIV-1)
# [2] = molecular target: HIV-1 Env of pseudovirus 191084 B7-19 (HIV-1)
# [3] = molecular target: HIV-1 Env of pseudovirus 191821_E6_1 (HIV-1)
# [4] = molecular target: HIV-1 Env of pseudovirus 235-47 (HIV-1)
# [5] = molecular target: HIV-1 Env of pseudovirus 6240_08_TA5_4622 (HIV-1)
# [6] = molecular target: HIV-1 Env of pseudovirus 6540.v4.c1 (HIV-1)
# [7] = molecular target: HIV-1 Env of pseudovirus 6545.v4.c1 (HIV-1)
# [8] = molecular target: HIV-1 Env of pseudovirus BJOX025000.01.1 (HIV-1)
# [9] = molecular target: HIV-1 Env of pseudovirus C1080.c03 (HIV-1)
# [10] = molecular target: HIV-1 Env of pseudovirus CAP45.2.00.G3 (HIV-1)
# [11] = molecular target: HIV-1 Env of pseudovirus CNE17 (HIV-1)
# [12] = molecular target: HIV-1 Env of pseudovirus Ce2060_G9 (HIV-1)
# [13] = molecular target: HIV-1 Env of pseudovirus Du172.17 (HIV-1)
# [14] = molecular target: HIV-1 Env of pseudovirus HIV-001428-2.42 (HIV-1)
# [15] = molecular target: HIV-1 Env of pseudovirus Q23.17 (HIV-1)
# [16] = molecular target: HIV-1 Env of pseudovirus Q451.e2 (HIV-1)
# [17] = molecular target: HIV-1 Env of pseudovirus Q842.d12 (HIV-1)
# [18] = molecular target: HIV-1 Env of pseudovirus R1166.c01 (HIV-1)
# [19] = molecular target: HIV-1 Env of pseudovirus RHPA4259.7 (HIV-1)
# [20] = molecular target: HIV-1 Env of pseudovirus T255-34 (HIV-1)
# [21] = molecular target: HIV-1 Env of pseudovirus T257-31 (HIV-1)
# [22] = molecular target: HIV-1 Env of pseudovirus X1193_c1 (HIV-1)
# [23] = molecular target: HIV-1 Env of pseudovirus X2131_C1_85 (HIV-1)
# [24] = molecular target: HIV-1 Env of pseudovirus ZM109F.PB4 (HIV-1)
# [25] = molecular target: HIV-1 Env of pseudovirus ZM135M.PL10a (HIV-1)
# [26] = molecular target: HIV-1 Env of pseudovirus ZM233M.PB6 (HIV-1)
# [27] = molecular target: HIV-1 envelope of pseudovirus 246F C1G (HIV-1)
# [28] = molecular target: HIV-1 envelope of pseudovirus 3415.v1.c1 (HIV-1)
# [29] = molecular target: HIV-1 envelope of pseudovirus 62357_14_03_4589 (HIV-1)
# [30] = molecular target: HIV-1 envelope of pseudovirus 6480.v4.c25 (HIV-1)
# [31] = molecular target: HIV-1 envelope of pseudovirus 6535.3 (HIV-1)
# [32] = molecular target: HIV-1 envelope of pseudovirus 6811.v7.c18 (HIV-1)
# [33] = molecular target: HIV-1 envelope of pseudovirus C3347.c11 (HIV-1)
# [34] = molecular target: HIV-1 envelope of pseudovirus CAP210.2.00.E8 (HIV-1)
# [35] = molecular target: HIV-1 envelope of pseudovirus CNE21 (HIV-1)
# [36] = molecular target: HIV-1 envelope of pseudovirus Ce1086_B2 (HIV-1)
# [37] = molecular target: HIV-1 envelope of pseudovirus Ce2010_F5 (HIV-1)
# [38] = molecular target: HIV-1 envelope of pseudovirus Ce704809221_1B3 (HIV-1)
# [39] = molecular target: HIV-1 envelope of pseudovirus HIV-16845-2.22 (HIV-1)
# [40] = molecular target: HIV-1 envelope of pseudovirus Q769.d22 (HIV-1)
# [41] = molecular target: HIV-1 envelope of pseudovirus Q842.d12 (HIV-1)
# [42] = molecular target: HIV-1 envelope of pseudovirus T250-4 (HIV-1)
# [43] = molecular target: HIV-1 envelope of pseudovirus T278-50 (HIV-1)
# [44] = molecular target: HIV-1 envelope of pseudovirus X1632_S2_B10 (HIV-1)
# [45] = molecular target: HIV-1 envelope spike of pseudovirus 6535.3 (HIV-1)
# [46] = molecular target: HIV-1 envelope spike of pseudovirus CAAN5342.A2 (HIV-1)
# [47] = molecular target: HIV-1 envelope spike of pseudovirus R1166.c1 (HIV-1)
# [48] = molecular target: HIV-1 envelope spike of pseudovirus YU-2 (HIV-1) (UniProt P35961)
# HIV-1 envelope spike of pseudovirus YU-2 (HIV-1), sequence (P35961 32-843): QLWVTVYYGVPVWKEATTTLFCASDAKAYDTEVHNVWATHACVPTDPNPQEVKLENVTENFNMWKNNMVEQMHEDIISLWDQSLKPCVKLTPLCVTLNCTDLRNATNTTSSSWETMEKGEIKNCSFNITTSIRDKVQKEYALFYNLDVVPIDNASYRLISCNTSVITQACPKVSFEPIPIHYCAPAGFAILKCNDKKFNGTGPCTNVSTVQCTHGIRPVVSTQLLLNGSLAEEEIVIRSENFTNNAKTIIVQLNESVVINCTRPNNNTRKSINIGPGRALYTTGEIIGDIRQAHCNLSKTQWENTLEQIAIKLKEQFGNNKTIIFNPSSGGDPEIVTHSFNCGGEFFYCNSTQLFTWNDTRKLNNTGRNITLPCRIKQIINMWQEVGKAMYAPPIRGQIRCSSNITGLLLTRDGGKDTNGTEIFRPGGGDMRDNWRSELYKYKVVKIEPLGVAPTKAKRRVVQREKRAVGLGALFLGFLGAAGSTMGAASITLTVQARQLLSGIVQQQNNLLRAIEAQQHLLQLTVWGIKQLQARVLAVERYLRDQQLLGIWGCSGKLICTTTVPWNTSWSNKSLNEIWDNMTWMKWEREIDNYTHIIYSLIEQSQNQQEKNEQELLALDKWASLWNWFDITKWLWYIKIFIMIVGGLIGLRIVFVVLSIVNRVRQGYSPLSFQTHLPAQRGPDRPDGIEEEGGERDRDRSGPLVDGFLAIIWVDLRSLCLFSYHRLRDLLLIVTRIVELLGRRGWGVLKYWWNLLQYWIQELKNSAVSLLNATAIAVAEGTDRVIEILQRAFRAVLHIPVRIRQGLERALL
# [49] = molecular target: Murine leukemia virus (MuLV) envelope on pseudovirus (Murine leukemia virus)
# 10-996 (antibody), sequence (VH): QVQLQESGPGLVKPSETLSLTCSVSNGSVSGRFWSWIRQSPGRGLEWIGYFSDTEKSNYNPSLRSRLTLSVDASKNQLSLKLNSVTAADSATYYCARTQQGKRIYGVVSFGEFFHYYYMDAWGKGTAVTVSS
# 10-996 (antibody), sequence (VL): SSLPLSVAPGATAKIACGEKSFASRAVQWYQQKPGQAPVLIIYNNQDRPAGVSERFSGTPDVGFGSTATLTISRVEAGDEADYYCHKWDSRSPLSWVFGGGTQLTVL
substance,measurement,setting,value
10-996 (antibody),IC80 (TZM-bl neutralization),[1],0.328 µg/mL
same,IC80 (TZM-bl neutralization),[2],0.144 µg/mL
same,IC80 (TZM-bl neutralization),[3],> 50 µg/mL
same,IC80 (TZM-bl neutralization),[4],0.381 µg/mL
same,IC80 (TZM-bl neutralization),[5],0.348 µg/mL
same,IC80 (TZM-bl neutralization),[6],> 50 µg/mL
same,IC80 (TZM-bl neutralization),[7],> 50 µg/mL
same,IC80 (TZM-bl neutralization),[8],> 50 µg/mL
same,IC80 (TZM-bl neutralization),[9],> 50 µg/mL
same,IC80 (TZM-bl neutralization),[10],> 50 µg/mL
same,IC80 (TZM-bl neutralization),[11],24.7 µg/mL
same,IC80 (TZM-bl neutralization),[12],> 50 µg/mL
same,IC80 (TZM-bl neutralization),[13],0.607 µg/mL
same,IC80 (TZM-bl neutralization),[14],0.204 µg/mL
same,IC80 (TZM-bl neutralization),[15],0.03 µg/mL
same,IC80 (TZM-bl neutralization),[16],> 50 µg/mL
same,IC80 (TZM-bl neutralization),[17],> 50 µg/mL
same,IC80 (TZM-bl neutralization),[18],> 50 µg/mL
same,IC80 (TZM-bl neutralization),[19],0.163 µg/mL
same,IC80 (TZM-bl neutralization),[20],> 50 µg/mL
same,IC80 (TZM-bl neutralization),[21],> 50 µg/mL
same,IC80 (TZM-bl neutralization),[22],0.482 µg/mL
same,IC80 (TZM-bl neutralization),[23],0.085 µg/mL
same,IC80 (TZM-bl neutralization),[24],> 50 µg/mL
same,IC80 (TZM-bl neutralization),[25],0.553 µg/mL
same,IC80 (TZM-bl neutralization),[26],4.52 µg/mL
same,IC50 (TZM-bl neutralization),[27],0.092 µg/mL
same,IC50 (TZM-bl neutralization),[28],35.9 µg/mL
same,IC50 (TZM-bl neutralization),[29],29.3 µg/mL
same,IC50 (TZM-bl neutralization),[30],0.01 µg/mL
same,IC50 (TZM-bl neutralization),[31],0.017 µg/mL
same,IC50 (TZM-bl neutralization),[32],0.001 µg/mL
same,IC50 (TZM-bl neutralization),[33],> 50 µg/mL
same,IC50 (TZM-bl neutralization),[34],24.8 µg/mL
same,IC50 (TZM-bl neutralization),[35],0.086 µg/mL
same,IC50 (TZM-bl neutralization),[36],> 50 µg/mL
same,IC50 (TZM-bl neutralization),[37],> 50 µg/mL
same,IC50 (TZM-bl neutralization),[38],0.243 µg/mL
same,IC50 (TZM-bl neutralization),[39],1.32 µg/mL
same,IC50 (TZM-bl neutralization),[40],> 50 µg/mL
same,IC50 (TZM-bl neutralization),[41],> 50 µg/mL
same,IC50 (TZM-bl neutralization),[42],< 0.001 µg/mL
same,IC50 (TZM-bl neutralization),[43],14 µg/mL
same,IC50 (TZM-bl neutralization),[44],> 50 µg/mL
same,IC50 (TZM-bl neutralization assay),[45],0.018 µg/mL
same,IC80 (TZM-bl neutralization assay),[45],0.085 µg/mL
same,IC50 (TZM-bl neutralization assay),[46],0.007 µg/mL
same,IC80 (TZM-bl neutralization assay),[46],0.06 µg/mL
same,IC50 (TZM-bl neutralization assay),[47],> 40 µg/mL
same,IC80 (TZM-bl neutralization assay),[47],> 40 µg/mL
same,IC50 (TZM-bl neutralization assay),[48],0.256 µg/mL
same,IC80 (TZM-bl neutralization assay),[48],0.891 µg/mL
same,IC50 (TZM-bl neutralization assay),[49],> 40 µg/mL
same,IC80 (TZM-bl neutralization assay),[49],> 40 µg/mL
